Test results taken from patent publication US20020055130A1, “Method and product for regulating apoptosis” (National Jewish Center for Immunology and Respiratory …, priority 1997, published 2002).

Key:
HEK293 cells = test: MEKK1 staining and TdT-mediated dUTP incorporation (DNA fragmentation) in transfected cells; type: cell-based, Human
Procedure: Human embryonal kidney 293 cells (HEK293) stably expressing the EBNA-1 protein from Epstein-Barr virus (Invitrogen) were grown in Dulbecco's modified Eagle's medium (DMEM) supplemented with 100 U/ml penicillin/streptomycin and containing 10% bovine calf serum (BCS). The cells were transfected using lipofectamine (Gibco).
Cells were grown on glass coverslips and transfected using lipofectamine. Two days after transfection, the medium was removed and the cells were fixed in 2% paraformaldehyde, 3% sucrose in phosphate buffered saline (PBS) for 10 min at room temperature. Following three washes with PBS, the cells were permeabilized for 10 min with 2% Triton-X100 in PBS. After three PBS washes, the cells were blocked with filtered cultured medium for 15 min. The coverslips were then incubated 1 hour in TdT reaction mix (200 mM potassium cacodylate, 25 mM Tris.HCl, pH 6.6, 250 μg/ml BSA, 5 mM CoCl2, 0.25 U/μl TdT [Boehringer], 10 μM biotin-dUTP [Boehringer]) at 37° C. in a humidifed atmosphere. […] The coverslips were then washed 6× over a 30 min period with PBS and incubated 1 hour at room temperature with a 1/1000 dilution in filtered culture medium of a donkey anti-rabbit, Cy^3-conjugated, antibody (Jackson Immunological) mixed with 5 μg/ml streptavidin conjugated with FITC (Jackson Immunological). The coverslips were washed 6× with PBS and incubated overnight in PBS before being mounted in 20 mg/ml o-phenyldiamine-diHCl (Sigma) in 0.1 M Tris pH 8.5, 90% glycerol. Images were taken using a Leica DMRXA microscope and analyzed with the SlideBook v2.0 software (Intelligent Imaging Innovations, Denver). The subcellular localization of endogenous MEKK1 observed with the anti-COOH-terminal MEKK1 antibody was identical to that observed with a second antibody recognizing the NH2-terminal portion of the MEKK1 protein.

c-Jun kinase (JNK) = test: c-Jun kinase assay, transfected HEK293 cells; type: cell-based, Human
Procedure: (§1) Lysis buffer (70 mM β-glycerophosphate, 1 mM EGTA, 100 μM Na3VO4, 1 mM DTT, 2 mM MgCl2, 0.5% Triton-X100, 20 μg/ml aprotinin) was added to cells 15-24 hours after transfection. Cellular debris was removed by centrifugation at 8,000xg for 5 min. Protein concentration was normalized by Bradford assay using BSA as standard.
c-Jun kinase (JNK) activity was measured using a solid phase kinase assay in which glutathione S-transferase-c-Jun(1-79) (GST-Jun) bound to glutathione-Sepharose 4B beads was used to affinity-purify JNK from cell lysates as described (Gardner and Johnson, 1996; Hibi et al., 1993). Alternatively, JNKI or JNK2 were immunoprecipitated with isoform specific antibodies (Santa Cruz Biotechnology) and GST-Jun used as substrate in an in vitro kinase assay (Hibi et al., 1993). Quantitation of the phosphorylation of GST-Jun was performed with a Phosphorlmager.

MEKK1 [1] = test: SEK1 K→M phosphorylation by MEKK1 immunoprecipitates; type: biochemical, mouse; details: HEK293 lysates; 95-012 antibody
Procedure: MEKK1 was immunoprecipitated from cell lysates (200-500 μg) with the antibodies raised against specific sequences of MEKK1 or the 12CA5 antibody that recognizes the HA-tag sequence.

ERK2 = ERK2 immunoprecipitation kinase assay, transfected HEK293 cells; type: cell-based, Human; details: co-expression with MEKK1
Procedure: as §1
ERK2 was immunoprecipitated as described above for the JNK isoforms using the ERK2 (C-14) antibody (Santa Cruz Biotechnology). The beads were washed twice with 1 ml lysis buffer and twice with 1 ml lysis buffer without Triton-X100. […] The samples were washed thrice for 5 min each in 75 mM phosphoric acid and once for 2 min in acetone, air-dried, and their radioactivity determined in a β counter.

MEKK1 [2] = test: Immunoblot of cleavage fragments of transfected HA-tagged MEKK1 in HEK293 cells; type: cell-based, Human
From the text: The full length cDNA encoding mouse MEKK1 was modified by addition of the HA-tag sequence ([…]) (SEQ ID NO: 12) at its NH2-terminus and inserted into the expression plasmid pCEP4 (Invitrogen), resulting in plasmid MEKK1.cp4. The MEKK1 sequences DTVD (amino acids 871-874) and DEVE (amino acids 857-860) in MEKK1.cp4 were substituted with alanines using a PCR strategy. The resulting plasmids were named DTVD_A.cp4 and DEVE_A.cp4. The cDNAs for CrmA (Pickup et al., 1986), p35 (Cartier et al., 1994), JNK1-APF (Dérijard et al., 1994) and JNK2-APF (Kallunki et al., 1994) were subcloned in pCEP4 in which the hygromycin resistance gene had been removed, resulting in plasmids CrmA.cp_, p35.cp_, JNK1_APF.cp and JNK2_APF.cp_. Plasmid pCDNA—3.cp4 is the result of the ligation of pCEP4 and pCDNA-3.
200-400 μg cell lysate protein was subjected to SDS-9% PAGE and transferred to nitrocellulose membranes. Blots were performed exactly as described (Widmann et al., 1995). To detect HA-tagged proteins, the mouse monoclonal antibody 12CA5 (Babco) was used as the primary antibody, followed by a rabbit anti-mouse antibody (Cappel). HRP-conjugated protein A at a 1/5000 dilution (Zymed) and ^125I-protein A at a 1/500 dilution (Dupont NEN) were then used for enhanced chemiluminescence (ECL) detection and for quantification using the phosphorimager. To detect MEKK1, 3 different ploclonal antisera were used as primary antibodies, followed by ECL detection using HRP-protein A (see above). These sera were generated by injecting rabbits with GST proteins fused with different portions of the MEKK1 protein.

[3] = co-expression with MEKK1, 6 independent experiments

Row | Molecule | expressing cells showing DNA breaks (HEK293 cells; co-expression with ΔMEKK1) [%] | cells showing some DNA fragmentation (HEK293 cells; cotransfected with MEKK1) | effect on activation of the JNKs by MEKK1 (c-Jun kinase (JNK); co-expression with MEKK1) | SEK1 phosphorylation by COOH-terminal antibody immunoprecipitates (MEKK1 [1]) | effect on activation of ERK2 by MEKK1 (ERK2) | amount of fragment A (MEKK1 [2]; [3]) | diminution of the amount of fragment B (MEKK1 [2]; [3]) [%] | reduction in number of expressing cells showing DNA fragmentation (HEK293 cells; compared to wild-type MEKK1 or the DEVE→A mutant) [%] | DNA fragmentation (HEK293 cells; expression in HEK293 cells) | JNK activation (c-Jun kinase (JNK); expression in HEK293 cells) | MEKK1 cleavage fragments generated (MEKK1 [2]; mutants transfected into HEK293 cells)
1 | p35: baculovirus protein with broad inhibitory activity to ICE/FLICE-like proteases (protein, UniProt P08160 1-299, looked up) Early 35 kDa protein: MCVIFPVEIDVSQTIIRDCQVDKQTRELVYINKIMNTQLTKPVLMMFNISGPIRSVTRKNNNLRDRIKSKVDEQFDQLERDYSDQMDGFHDSIKYFKDEHYSVSCQNGSVLKSKFAKILKSHDYTDKKSIEAYEKYCLPKLVDERNDYYVAVCVLKPGFENGSNQVLSFEYNPIGNKVIVPFAHEINDTGLYEYDVVAYVDSVQFDGEQFEEFVQSLILPSSFKNSEKVLYYNEASKNKSMIYKALEFTTESSWGKSEKYNWKIFCNGFIYDKKSKVLYVKLHNVTSALNKNVILNTIK | 10 | about 5% | unaffected | reached the same level of phosphorylation observed when the 12CA5 antibody was used | unaffected | unchanged | 90 |  |  |  | 
2 | DTVD→A: MEKK1 mutant with DTVD (amino acids 871-874) substituted with alanines (protein, UniProt P53349 2-1493, looked up, variant D871A T872A V873A D874A) Mitogen-activated protein …: AAAAGDRASSSGFPGAAAASPEAGGGGGGGGALQGSGAPAAGAAGLLREPGSAGRERADWRRRQLRKVRSVELDQLPEQPLFLAAASPPCPSTSPSPEPADAAAGASRFQPAAGPPPPGAASRCGSHSAELAAARDSGARSPAGAEPPSAAAPSGREMENKETLKGLHKMEDRPEERMIREKLKATCMPAWKHEWLERRNRRGPVVVKPIPIKGDGSEVNNLAAEPQGEGQAGSAAPAPKGRRSPSPGSSPSGRSVKPESPGVRRKRVSPVPFQSGRITPPRRAPSPDGFSPYSPEETSRRVNKVMRARLYLLQQIGPNSFLIGGDSPDNKYRVFIGPQNCSCGRGAFCIHLLFVMLRVFQLEPSDPMLWRKTLKNFEVESLFQKYHSRRSSRIKAPSRNTIQKFVSRMSNSHTLSSSSTSTSSSENSIKDEEEQMCPICLLGMLDEESLTVCEDGCRNKLHHHCMSIWAEECRRNREPLICPLCRSKWRSHDFYSHELSSPVESPASLRAVQQPSSPQQPVAGSQRRNQESSFNLTHFGTQQIPSAYKDLAEPWIQVFGMELVGCLFSRNWNVREMALRRLSHDVSGALLLANGESTGNSGGGSGGSLSAGAASGSSQPSISGDVVEACCSVLSIVCADPVYKVYVAALKTLRAMLVYTPCHSLAERIKLQRLLRPVVDTILVKCADANSRTSQLSISTVLELCKGQAGELAVGREILKAGSIGVGGVDYVLSCILGNQAESNNWQELLGRLCLIDRLLLEFPAEFYPHIVSTDVSQAEPVEIRYKKLLSLLTFALQSIDNSHSMVGKLSRRIYLSSARMVTAVPAVFSKLVTMLNASGSTHFTRMRRRLMAIADEVEIAEVIQLGVEAAAAGHQDSLQAVAPTSCLENSSLEHTVHREKTGKGLSATRLSASSEDISDRLAGVSVGLPSSTTTEQPKPAVQTKGRPHSQCLNSSPLSHAQLMFPAPSAPCSSAPSVPDISKHRPQAFVPCKIPSASPQTQRKFSLQFQRNCSEHRDSDQLSPVFTQSRPPPSSNIHRPKPSRPVPGSTSKLGDATKSSMTLDLGSASRCDDSFGGGGNSGNAVIPSDETVFTPVEDKCRLDVNTELNSSIEDLLEASMPSSDTTVTFKSEVAVLSPEKAENDDTYKDDVNHNQKCKEKMEAEEEEALAIAMAMSASQDALPIVPQLQVENGEDIIIIQQDTPETLPGHTKAKQPYREDAEWLKGQQIGLGAFSSCYQAQDVGTGTLMAVKQVTYVRNTSSEQEEVVEALREEIRMMGHLNHPNIIRMLGATCEKSNYNLFIEWMAGGSVAHLLSKYGAFKESVVINYTEQLLRGLSYLHENQIIHRDVKGANLLIDSTGQRLRIADFGAAARLASKGTGAGEFQGQLLGTIAFMAPEVLRGQQYGRSCDVWSVGCAIIEMACAKPPWNAEKHSNHLALIFKIASATTAPSIPSHLSPGLRDVAVRCLELQPQDRPPSRELLKHPVFRTTW |  |  |  | reduced |  |  |  | 65 | little DNA fragmentation | activated JNK to the same level as wild type MEKK1 | only cleaved into fragments A and D
